The text below walks through data of publication PMC7352787.

Experiment [1] deals with membrane-bound HLA-G*01:03 on K562 cells (human). Description: flow cytometry on cells; 1 x 10^6 K562 cells presenting HLA-G*01:0x incubated with 200 nM purified sNKG2A/CD94 or sNKG2C/CD94 for 2 h at 37 °C; detection by anti-V5-tag antibody and PE-coupled secondary antibody; three technical replicates. In general terms: Flow cytometry measures light scatter and fluorescence of single cells or particles in a stream.

Experiment [2] deals with membrane-bound HLA-G*01:04 on K562 cells (human). Described as above.

Consider “recombinant soluble heterodimeric NKG2A/CD94 (from UniProt P26715 1-233; Q13241 1-179) (complex)”, for which the percent binding (flow cytometry) turned out to be 17.4% in experiment [1] and 57.7% in experiment [2].
